Laboratory results published in PMC9676401.

Legend:
[1] = target: Full-length FLAG-tagged MKP7 C244S (catalytically inactive, substrate-trapping) (human) (UniProt Q9BY84); assay: co-IP; COS-7 cells cotransfected for 48 h in 10% FBS DMEM with FLAG-MKP7 (WT or mutants) and p38α MAPK-HA, JNK1β-GFP or ERK2-HA; Pierce IP lysis buffer; immunoprecipitation with anti-FLAG M2 overnight and protein-G beads; immunoblot with anti-HA or anti-GFP; quantitation as MAPK/FLAG-MKP7
[2] = target: GFP-tagged JNK1 (JNK1β) in pEGFP-C2; assay: co-immunoprecipitation (anti-FLAG IP, anti-GFP immunoblot, densitometry); details: COS-7 cells, transient transfection 48 h; parent: est. 1.0; read off a plot

GFP-tagged JNK1 (JNK1β) in pEGFP-C2, sequence (P45983 whole entry): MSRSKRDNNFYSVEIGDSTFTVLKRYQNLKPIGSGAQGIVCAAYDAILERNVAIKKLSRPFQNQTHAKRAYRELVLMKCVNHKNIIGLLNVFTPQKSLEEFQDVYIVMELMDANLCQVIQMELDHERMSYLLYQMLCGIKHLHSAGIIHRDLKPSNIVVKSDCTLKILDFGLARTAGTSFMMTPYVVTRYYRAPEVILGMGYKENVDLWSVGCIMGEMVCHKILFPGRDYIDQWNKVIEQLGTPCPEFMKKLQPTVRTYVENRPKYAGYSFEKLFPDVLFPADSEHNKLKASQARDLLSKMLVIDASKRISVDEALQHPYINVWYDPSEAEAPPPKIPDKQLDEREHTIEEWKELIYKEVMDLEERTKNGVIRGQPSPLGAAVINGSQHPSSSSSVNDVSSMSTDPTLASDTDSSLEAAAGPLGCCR
UniProt Q9BY84, sequence (Q9BY84 whole entry C244S): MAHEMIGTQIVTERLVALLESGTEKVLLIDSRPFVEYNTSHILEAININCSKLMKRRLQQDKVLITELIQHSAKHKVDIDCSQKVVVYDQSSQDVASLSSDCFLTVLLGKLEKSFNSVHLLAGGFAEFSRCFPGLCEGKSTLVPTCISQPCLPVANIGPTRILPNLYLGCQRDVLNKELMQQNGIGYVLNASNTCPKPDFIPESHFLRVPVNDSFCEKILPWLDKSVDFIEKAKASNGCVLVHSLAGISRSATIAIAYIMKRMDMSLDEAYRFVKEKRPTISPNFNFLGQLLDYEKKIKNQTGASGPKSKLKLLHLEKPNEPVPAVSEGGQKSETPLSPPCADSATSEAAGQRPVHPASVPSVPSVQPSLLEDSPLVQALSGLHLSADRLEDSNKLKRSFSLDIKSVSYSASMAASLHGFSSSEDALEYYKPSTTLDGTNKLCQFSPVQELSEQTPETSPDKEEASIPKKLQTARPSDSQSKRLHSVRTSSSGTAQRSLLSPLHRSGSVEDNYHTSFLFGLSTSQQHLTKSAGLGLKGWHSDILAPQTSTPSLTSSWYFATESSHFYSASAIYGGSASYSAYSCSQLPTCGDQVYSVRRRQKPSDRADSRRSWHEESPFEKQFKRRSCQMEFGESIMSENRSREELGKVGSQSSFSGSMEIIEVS

fold bound compared with WT [1] [fold]	ratio to parent [2]	Substance
3	–	GFP-tagged JNK1 (JNK1β) in pEGFP-C2 (enzyme)
–	0	Full-length FLAG-tagged MKP7 WT (1-665 aa) (from UniProt Q9BY84) Y271S; C244S
–	0	Full-length FLAG-tagged MKP7 WT (1-665 aa) (from UniProt Q9BY84) Y271S
